Measurements: PMC4643364 (Cancer cell, 2015)

Biological target: T1, EphB4 labelled with NT-647 dye (UniProt P54760 16-539, NT-647 dye through primary amide coupling)
T1 sequence (looked up): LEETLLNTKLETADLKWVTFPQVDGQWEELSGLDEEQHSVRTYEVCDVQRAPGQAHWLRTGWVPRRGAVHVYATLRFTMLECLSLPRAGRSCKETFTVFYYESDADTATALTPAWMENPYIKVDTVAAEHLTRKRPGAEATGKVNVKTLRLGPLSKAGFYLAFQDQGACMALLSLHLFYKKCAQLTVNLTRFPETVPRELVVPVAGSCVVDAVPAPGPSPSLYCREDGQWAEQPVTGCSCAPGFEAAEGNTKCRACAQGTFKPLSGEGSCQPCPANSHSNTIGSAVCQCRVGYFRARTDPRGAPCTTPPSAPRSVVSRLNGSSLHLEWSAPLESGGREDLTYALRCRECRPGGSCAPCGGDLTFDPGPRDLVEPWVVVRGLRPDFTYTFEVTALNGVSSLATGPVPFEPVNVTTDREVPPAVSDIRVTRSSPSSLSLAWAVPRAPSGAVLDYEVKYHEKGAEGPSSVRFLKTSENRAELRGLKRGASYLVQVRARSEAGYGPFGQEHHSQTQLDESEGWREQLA
Test: MST

- Kd: 140 nM
B1: EphrinB2/Fc, purified recombinant protein (Fc fusion, UniProt P52799 28-229, looked up)
chain: IVLEPIYWNSSNSKFLPGQGLVLYPQIGDKLDIICPKVDSKTVGQYEYYKVYMVDKDQADRCTIKKENTPLLNCAKPDQDIKFTIKFQEFSPNLWGLEFQKNKDYYIISTSNGSLEGLDNQEGGVCQTRAMKILMKVGQDASSAGSTRNKDPTRRPELEAGTNGRSSTTSPFVKPNPGSSTDGNSAGHSGNNILGSEVALFA
